B1: Hairpin Ribozyme (parent)
chain: GUCCUCUUUCACGUGCGCGUGAAAGAGAGAAGUGAACCAGAGAAACACACGUUGUGGUAUAUUACCUGGUA

Variants of: B1
Experiment: self-cleavage, relative activity (ratio to wild type); higher = more cleavage; co-transcriptional

| Variant | self-cleavage |
| --- | --- |
| GUCCUCUUUCACGUGCGCUUGAAAGAGAGAAGUGAACCAGAGAAACACACGUUGUGGUAUCUUACCUGGUA [G19U A61C] | 0.236 |
| GUCCUCUUUCACGUGCGCUUGAAAGAGAGAAGUGAACCAGAGAAACACACGUUGUGGUAUGUUACCUGGUA [G19U A61G] | 0.231 |
| GUCCUCUUUCACGUGCGCGAGAAAGAGAGUAGUGAACCAGAGAAACACACGUUGUGGUAUAUUACCUGGUA [U20A A30U] | 0.145 |
| GUCCUCUUUCACGUGCGCGAGACAGAGAGAAGUGAACCAGAGAAACACACGUUGUGGUAUAUUACCUGGUA [U20A A23C] | 0.734 |
| GUCCUCUUUCACGUGCGCUUGAAAGAGAGAAGUGAACCAGCGAAACACACGUUGUGGUAUAUUACCUGGUA [G19U A41C] | 0.899 |
| GUCCUCUUUCACGUGCGCUUGAAAGAGAGAAGUGAACCAGGGAAACACACGUUGUGGUAUAUUACCUGGUA [G19U A41G] | 0.913 |
| GUCCUCUUUCACGUGCGCUUGAAAGAGAGAAGUGAACCAGAGUAACACACGUUGUGGUAUAUUACCUGGUA [G19U A43U] | 0.134 |
| GUCCUCUUUCACGUGCGCUUGAAAGAGAGAAGUGAACCAGAGGAACACACGUUGUGGUAUAUUACCUGGUA [G19U A43G] | 0.136 |
| GUCCUCUUUCACGUGCGCUUGAAAGAGAGACGUGAACCAGAGAAACACACGUUGUGGUAUAUUACCUGGUA [G19U A31C] | 0.0951 |
| GUCCUCUUUCACGUGCGCUUGAAAGAGAGAAGUGAAUCAGAGAAACACACGUUGUGGUAUAUUACCUGGUA [G19U C37U] | 0.588 |
| GUCCUCUUUCACGUGCGCUUGAAAGAGAGAAGUGAACCAGAGAAACACACAUUGUGGUAUAUUACCUGGUA [G19U G51A] | 0.956 |
| GUCCUCUUUCACGUGCGCUUGAAAGAGAGAAGUGAACCAGAGAAACACACCUUGUGGUAUAUUACCUGGUA [G19U G51C] | 0.707 |
| GUCCUCUUUCACGUGCGCUUGAAAGAGAGAAGUGAACCAGAGAAACACACUUUGUGGUAUAUUACCUGGUA [G19U G51U] | 0.947 |
| GUCCUCUUUCACGUGCGCUUGAAAGAGAGAAGUGAACCAGAGAAAUACACGUUGUGGUAUAUUACCUGGUA [G19U C46U] | 0.136 |
| GUCCUCUUUCACGUGCGCUUGAAAGAGACAAGUGAACCAGAGAAACACACGUUGUGGUAUAUUACCUGGUA [G19U G29C] | 0.0899 |
| GUCCUCUUUCACGUGCGCUUGAAAGAGAGAAGUGAACCAGAGAAACACACGUUGUGGUAUAUUACCUUGUA [G19U G68U] | 0.338 |
| GUCCUCUUUCACGUGCGCUUGAAAGAGAGAAGUGAACCAGAUAAACACACGUUGUGGUAUAUUACCUGGUA [G19U G42U] | 0.346 |
| GUCCUCUUUCACGUGCGCUUGAAAGAGAGAAGUGAACCAGAAAAACACACGUUGUGGUAUAUUACCUGGUA [G19U G42A] | 0.175 |
| GUCCUCUUUCACGUGCGCUUGAAAGAGAGAAGUGAACCAGAGAAACACACGUUGUGGUAUAUGACCUGGUA [G19U U63G] | 0.205 |
| GUCCUCUUUCACGUGCGCGAGAAAGAGAGAGGUGAACCAGAGAAACACACGUUGUGGUAUAUUACCUGGUA [U20A A31G] | 0.466 |
| GUCCUCUUUCACGUGCGCGAGAAGGAGAGAAGUGAACCAGAGAAACACACGUUGUGGUAUAUUACCUGGUA [U20A A24G] | 0.895 |
| GUCCUCUUUCACGUGCGCUUGAAAGAGAGAAGUGAACCAGAGAGACACACGUUGUGGUAUAUUACCUGGUA [G19U A44G] | 0.163 |
| GUCCUCUUUCACGUGCGCUUGAAAGAGGGAAGUGAACCAGAGAAACACACGUUGUGGUAUAUUACCUGGUA [G19U A28G] | 1 |
| GUCCUCUUUCACGUGCGCUUGAAAGAGAGAAGUGAACCAGAGAAACACACGUUGUGGUAUAUUACCGGGUA [G19U U67G] | 0.272 |
| GUCCUCUUUCACGUGCGCUUGAAAGAGAGAAGUGAACCAGAGAAACACACGUUGUGGUAUAUUACCAGGUA [G19U U67A] | 0.131 |
| GUCCUCUUUCACGUGCGCGAGAAAGAGCGAAGUGAACCAGAGAAACACACGUUGUGGUAUAUUACCUGGUA [U20A A28C] | 0.482 |

| Variant | self-cleavage |
| --- | --- |
| GUCCUCUUUCACGUGCGCGAGAAAGAGGGAAGUGAACCAGAGAAACACACGUUGUGGUAUAUUACCUGGUA [U20A A28G] | 0.833 |
| GUCCUCUUUCACGUGCGCUUGAAAGAGAGAAGUGUACCAGAGAAACACACGUUGUGGUAUAUUACCUGGUA [G19U A35U] | 0.626 |
| GUCCUCUUUCACGUGCGCUUGAAAGAGAGAAGUGGACCAGAGAAACACACGUUGUGGUAUAUUACCUGGUA [G19U A35G] | 1.06 |
| GUCCUCUUUCACGUGCGCCUGAAAGAGAGAAGUGAACCAGAGAAACACACGUGGUGGUAUAUUACCUGGUA [G19C U53G] | 0.566 |
| GUCCUCUUUCACGUGCGCUUGAAAGAGAGAAGUGAACCAGAGAAACACAUGUUGUGGUAUAUUACCUGGUA [G19U C50U] | 0.33 |
| GUCCUCUUUCACGUGCGCUCGAAAGAGAGAAGUGAACCAGAGAAACACACGUUGUGGUAUAUUACCUGGUA [G19U U20C] | 0.731 |
| GUCCUCUUUCACGUGCGCUUGAAAGAGAGAAGUGAACCACAGAAACACACGUUGUGGUAUAUUACCUGGUA [G19U G40C] | 0.11 |
| GUCCUCUUUCACGUGCGCUUCAAAGAGAGAAGUGAACCAGAGAAACACACGUUGUGGUAUAUUACCUGGUA [G19U G21C] | 0.692 |
| GUCCUCUUUCACGUGCGCUUGAAAGAGAGAAGUGAACCAGAGAAACACACGUUGUGGUAUAUUACCUGGUU [G19U A71U] | 0.738 |
| GUCCUCUUUCACGUGCGCUUGAAAGAGAGAAGUGAACCAGAGAAACACACGUUGUGGUAUAUUACCUGGUC [G19U A71C] | 1.39 |
| GUCCUCUUUCACGUGCGCUUGAAAGAGAGAAGUGAACCAGAGAAACGCACGUUGUGGUAUAUUACCUGGUA [G19U A47G] | 0.24 |
| GUCCUCUUUCACGUGCGCUUGAAAGAGAGAAGUGAACCAGAGAAACCCACGUUGUGGUAUAUUACCUGGUA [G19U A47C] | 0.418 |
| GUCCUCUUUCACGUGCGCCUGAAAGAGAGAAGUGAACCAGAGAAACACACGUUGGGGUAUAUUACCUGGUA [G19C U55G] | 0.335 |
| GUCCUCUUUCACGUGCGCCUGAAAGAGAGAAGUGAACCAGAGAAACACACGUUGAGGUAUAUUACCUGGUA [G19C U55A] | 0.17 |
| GUCCUCUUUCACGUGCGCGAGAAAGGGAGAAGUGAACCAGAGAAACACACGUUGUGGUAUAUUACCUGGUA [U20A A26G] | 0.859 |
| GUCCUCUUUCACGUGCGCUUGAAACAGAGAAGUGAACCAGAGAAACACACGUUGUGGUAUAUUACCUGGUA [G19U G25C] | 0.537 |
| GUCCUCUUUCACGUGCGCUUGAAAUAGAGAAGUGAACCAGAGAAACACACGUUGUGGUAUAUUACCUGGUA [G19U G25U] | 0.548 |
| GUCCUCUUUCACGUGCGCUUGAAAAAGAGAAGUGAACCAGAGAAACACACGUUGUGGUAUAUUACCUGGUA [G19U G25A] | 0.33 |
| GUCCUCUUUCACGUGCGCUUGAAAGACAGAAGUGAACCAGAGAAACACACGUUGUGGUAUAUUACCUGGUA [G19U G27C] | 0.318 |
| GUCCUCUUUCACGUGCGCUUGAAAGAUAGAAGUGAACCAGAGAAACACACGUUGUGGUAUAUUACCUGGUA [G19U G27U] | 0.262 |
| GUCCUCUUUCACGUGCGCUUGAAAGAGAGAAGUGAACCAGAGAAACAAACGUUGUGGUAUAUUACCUGGUA [G19U C48A] | 0.135 |
| GUCCUCUUUCACGUGCGCUUGAAAGAGAGAAGUGAACCAGAGAAACACACGUUGUGGUAUAUUUCCUGGUA [G19U A64U] | 0.217 |
| GUCCUCUUUCACGUGCGCCUGAAAGAGAGAAGUGAACCAGAGAAACACACGUUGUGGUAUAGUACCUGGUA [G19C U62G] | 0.282 |
| GUCCUCUUUCACGUGCGCUUGAAAGAGAGAAGUGAACCAGAGAAACACACGUUGUGGUAUAUUACCUGAUA [G19U G69A] | 0.32 |
| GUCCUCUUUCACGUGCGCUUGAAAGAGAGAAGUGAACCAGAGAAACACACGUUGUGGUAUAUUACCUGCUA [G19U G69C] | 0.269 |
| GUCCUCUUUCACGUGCGCCUGAAAGAGAGAAGUGAACCAGAGAAACACACGUUGUGGUAUAUUACCUGGCA [G19C U70C] | 0.879 |

| Variant | self-cleavage |
| --- | --- |
| GUCCUCUUUCACGUGCGCCUGAAAGAGAGAAGUGAACCAGAGAAACACACGUUGUGGUAUAUUACCUGGGA [G19C U70G] | 0.695 |
| GUCCUCUUUCACGUGCGCUUGAAAGAGAGAAGUGAACCAGAGAAACACACGUUGUCGUAUAUUACCUGGUA [G19U G56C] | 0.223 |
| GUCCUCUUUCACGUGCGCUUGAAAGAGAGAAGUGAACCAGAGAAACACACGUUGUAGUAUAUUACCUGGUA [G19U G56A] | 0.16 |
| GUCCUCUUUCACGUGCGCUUGAAAGAGAGAAGUGAACCAGAGAAACACGCGUUGUGGUAUAUUACCUGGUA [G19U A49G] | 0.545 |
| GUCCUCUUUCACGUGCGCUUGAAAGAGAGAAGUGAACCAGAGAAACACCCGUUGUGGUAUAUUACCUGGUA [G19U A49C] | 0.18 |
| GUCCUCUUUCACGUGCGCCUGAAAGAGAGAAGCGAACCAGAGAAACACACGUUGUGGUAUAUUACCUGGUA [G19C U33C] | 0.173 |
| GUCCUCUUUCACGUGCGCCUGAAAGAGAGAAGAGAACCAGAGAAACACACGUUGUGGUAUAUUACCUGGUA [G19C U33A] | 0.125 |
| GUCCUCUUUCACGUGCGCGAGAAAGAGAGAAGUGAACCAGAGAAACACACGUUGUGGUAUAUUACCUGGUA [U20A] | 0.869 |
| GUCCUCUUUCACGUGCGCUUGAAAGAGAGAAGUGAACCAGAGAAACACACGUUGUGGUAUAUUACGUGGUA [G19U C66G] | 0.22 |
| GUCCUCUUUCACGUGCGCCUGAAAGAGAGAAGUGAACCAGAGAAACACACGCUGUGGUAUAUUACCUGGUA [G19C U52C] | 0.775 |
| GUCCUCUUUCACGUGCGCUUGAAAGAGAGAAGUGAACCAGAGAAACACACGUUGUGGUACAUUACCUGGUA [G19U U60C] | 1.2 |
| GUCCUCUUUCACGUGCGCUUGAAAGAGAGAAGUGAACCAGAGAAACACACGUUGUGGAAUAUUACCUGGUA [G19U U58A] | 0.607 |
| GUCCUCUUUCACGUGCGCUUGAAAGAGAGAAGUGAACCAGAGAAACACACGUUGCGGUAUAUUACCUGGUA [G19U U55C] | 0.226 |
| GUCCUCUUUCACGUGCGCUUGAAAGAGAGAAGUGAACCAGAGAAACACACGUUGUGGUAUACUACCUGGUA [G19U U62C] | 0.256 |
| GUCCUCUUUCACGUGCGCUUGAAAGAGAGAAGUGAACCAGAGAACCACACGUUGUGGUAUAUUACCUGGUA [G19U A45C] | 0.292 |
| GUCCUCUUUCACGUGCGCUUGAAAGAGAGAAGUGAACCAGAGAAGCACACGUUGUGGUAUAUUACCUGGUA [G19U A45G] | 0.228 |
| GUCCUCUUUCACGUGCGCUUGAAAGAGAGAAGUGAACCAGAGAAUCACACGUUGUGGUAUAUUACCUGGUA [G19U A45U] | 0.145 |
| GUCCUCUUUCACGUGCGCUUGAAAGAGAGAAGUAAACCAGAGAAACACACGUUGUGGUAUAUUACCUGGUA [G19U G34A] | 1.19 |
| GUCCUCUUUCACGUGCGCUUGAUAGAGAGAAGUGAACCAGAGAAACACACGUUGUGGUAUAUUACCUGGUA [G19U A23U] | 0.944 |
| GUCCUCUUUCACGUGCGCUUGACAGAGAGAAGUGAACCAGAGAAACACACGUUGUGGUAUAUUACCUGGUA [G19U A23C] | 0.666 |
| GUCCUCUUUCACGUGCGCUUGAAAGAGAGAAGUGAACCAGAGAAACACACGUUGUGAUAUAUUACCUGGUA [G19U G57A] | 0.169 |
| GUCCUCUUUCACGUGCGCUUGAAAGAGAGAAGUGACCCAGAGAAACACACGUUGUGGUAUAUUACCUGGUA [G19U A36C] | 0.554 |
| GUCCUCUUUCACGUGCGCUUGAAAGAGAGAAGUGAUCCAGAGAAACACACGUUGUGGUAUAUUACCUGGUA [G19U A36U] | 0.628 |
| GUCCUCUUUCACGUGCGCUUGAAAGAGAGAAGUGAGCCAGAGAAACACACGUUGUGGUAUAUUACCUGGUA [G19U A36G] | 1 |

From the RNAGym collection of RNA variant scans (doi:10.7554/elife.80360)
